Reference: US20190262327A1, “COMBINATION OF A BACE INHIBITOR AND AN ANTIBODY OR ANTIGEN-BINDING FRAGMENT FOR THE TREATMENT OF A DISORDER ASSOCIATED WITH THE ACCUMULATION OF AMYLOID BETA” (ASTRAZENECA AB, priority 2016, published 2019)

Columns and labels:
Amyloid plaques = experiment: In vitro immunohistochemistry on human Alzheimer's Disease brain sections
From the text: Briefly, the lead antibodies were screened on human Alzheimer's Disease brain sections and Tg2576 mouse brain sections to identify anti-Amyloid beta 1-42 antibodies that bound to Amyloid plaques in vitro.
In these experiments, human brain tissue was isolated from the frontal cortex of two individuals with severe Alzheimer's Disease (ApoE genotype 3/3, Braak stage 6 and ApoE genotype 4/3, Braak stage 5). As a control, equivalent tissue was isolated from one non-dementia individual (ApoE genotype 3/3, Braak stage 1). Mouse brain tissue was isolated from Tg2576 mice at an age of 15 months (2 mice) and 22 months (2 mice). Antibodies were tested at concentrations of 2, 5, 10 and 20 ug ml^−1.

Aβ1-42 aggregate = target: T1, Aβ1-42 aggregate (Homo sapiens, UniProt P05067); experiment: Western blot of Abeta 42 aggregate preparation (PICUP and non PICUP); format: binding; details: primary antibody 2 ug/ml; non PICUP and PICUP Aβ42 aggregate
T1 construct: non-cross-linked A[…] 1-42 aggregate
Description: To cross-link the A042 oligomers before SDS-PAGE, PICUP (photo-induced cross-linking of peptides) was carried out as follows. A 1 mM solution of Ru(Bpy) was created by adding 2 μl of stock (at 10 mM) to 18 μl of 1×PBS. In addition, a 20 mM solution of ammonium persulphate (APS) was created by adding […] of stock (at 200 mM) to 18 μl of 1×PBS. Unused stock was immediately snap-frozen on dry ice and returned to the −80° C. freezer. In the dark room, 5 μl of Ru(Bpy) was added to 80 μl of aggregate (neat 10 uM sample), followed by 5 μl of APS. Samples were irradiated with a lamp in the dark room for 10 secs. 30 uls of (4×) LDS Sample buffer was added immediately.
SDS-PAGE was then performed on cross-linked (PICUP) and non-cross-linked A[…] 1-42 aggregate. The solutions were incubated in a hot block at 70° C. for 10 minutes. Meanwhile, a marker was created by combining 5 μl of Magic Mark XP Western Protein Standard, 5 μl of Novex Sharp Pre-stained Protein Standard. After the ten-minute incubation, the samples plus marker were loaded onto a NuPAGE Novex 4-12% Bis-Tris Gels (1.0 mm, 15 well, 15 μl per well) with MES running buffer. The gels were run at 200 V for 35 minutes. […]
During the final washes, the chemi-luminescence SuperSignal West Dura substrate (Thermo Scientific; 34075) were allowed to warm to room temperature. […]

T1 sequence (P05067 672-713 limits assumed): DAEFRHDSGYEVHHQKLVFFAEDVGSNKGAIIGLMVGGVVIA

B1: Abet0380-GL IgG1-TM: germlined Abet0380; VH SEQ ID NO: 524, VL SEQ ID NO: 533; human IgG1 triple mutant format (antibody, listed as Homo sapiens, V domains shown)
VH: EVQLLESGGGLVQPGGSLRLSCAASMGNFNYQTMWWVRQAPGKGLEWVSVIGKTNENIAYADSVKGRFTISRDNSKNTLYLQMNSLRAEDTAVYYCAREWMDHSRPYYYYGMDVWGQGTLVTVSS
VL: SYELTQPPSVSVSPGQTASITCSGHNLEDKFASWYQQKPGQSPVLVIYRDDKRPSGIPERFSASNSGHTATLTISGTQAMDEADYYCSSQDTVTRVFGGGTKLTVL
modifications: human IgG1 triple mutant constant region; /note=“Abet0380-GL”
notes: germlined Abet0380; human IgG1 triple mutant format
- plaque recognition score (Amyloid plaques; human AD brain section, ApoE genotype 3/3, Braak stage 6, 10 μg/ml): 3
- core plaques (CP) staining score (Amyloid plaques; human AD brain sections): 3
- staining of diffuse plaques (DP) and cerebral amyloid angiopathy (CAA) plaques (Amyloid plaques; relative to core plaques, Tg2576 and human AD brain sections): to a lesser extent
- Abeta42 recognition profile by Western blot (Aβ1-42 aggregate): specifically recognises Aβ1-42 monomer and low n oligomer species up to and including pentamer
